From publication PMC5706989 (Molecular Biology of the Cell, 2017)

Assays:
[1] = molecular target: the molecule itself; assay: one-colour scanning fluorescence correlation spectroscopy
[2] = molecular target: the molecule itself; assay: two-colour scanning fluorescence
[3] = molecular target: the molecule itself; assay: two-colour scanning fluorescence; remark: listed apart in the source
[4] = molecular target: the molecule itself; assay: two-colour scanning fluorescence; remark: listed apart in the source
[5] = molecular target: the molecule itself; assay: one-colour scanning fluorescence correlation spectroscopy; remark: listed apart in the source
[6] = molecular target: the molecule itself; assay: two-colour scanning fluorescence; remark: listed apart in the source

B1: APLP1–yellow fluorescent protein (APLP1-YFP) (natural protein, UniProt P51693 39-650, looked up)
chain: SLAGGSPGAAEAPGSAQVAGLCGRLTLHRDLRTGRWEPDPQRSRRCLRDPQRVLEYCRQMYPELQIARVEQATQAIPMERWCGGSRSGSCAHPHHQVVPFRCLPGEFVSEALLVPEGCRFLHQERMDQCESSTRRHQEAQEACSSQGLILHGSGMLLPCGSDRFRGVEYVCCPPPGTPDPSGTAVGDPSTRSWPPGSRVEGAEDEEEEESFPQPVDDYFVEPPQAEEEEETVPPPSSHTLAVVGKVTPTPRPTDGVDIYFGMPGEISEHEGFLRAKMDLEERRMRQINEVMREWAMADNQSKNLPKADRQALNEHFQSILQTLEEQVSGERQRLVETHATRVIALINDQRRAALEGFLAALQADPPQAERVLLALRRYLRAEQKEQRHTLRHYQHVAAVDPEKAQQMRFQVHTHLQVIEERVNQSLGLLDQNPHLAQELRPQIQELLHSEHLGPSELEAPAPGGSSEDKGGLQPPDSKDDTPMTLPKGSTEQDAASPEKEKMNPLEQYERKVNASVPRGFPFHSSEIQRDELAPAGTGVSREAVSGLLIMGAGGGSLIVLSMLLLRRKKPYGAISHGVVEVDPMLTLEEQQLRELQRHGYENPTYRFLEERP
- stoichiometry N [1]: 1.9
- stoichiometry N [2]: 6
- stoichiometry N [3]: 1.8
- stoichiometry N [4]: 21
- stoichiometry N [5]: 2
- stoichiometry N [6]: 3
